Literature values as cited in paper PMC8226686.

Target: insulin receptor (Homo sapiens) (UniProt P06213)
UniProt P06213, sequence (P06213 763-1382): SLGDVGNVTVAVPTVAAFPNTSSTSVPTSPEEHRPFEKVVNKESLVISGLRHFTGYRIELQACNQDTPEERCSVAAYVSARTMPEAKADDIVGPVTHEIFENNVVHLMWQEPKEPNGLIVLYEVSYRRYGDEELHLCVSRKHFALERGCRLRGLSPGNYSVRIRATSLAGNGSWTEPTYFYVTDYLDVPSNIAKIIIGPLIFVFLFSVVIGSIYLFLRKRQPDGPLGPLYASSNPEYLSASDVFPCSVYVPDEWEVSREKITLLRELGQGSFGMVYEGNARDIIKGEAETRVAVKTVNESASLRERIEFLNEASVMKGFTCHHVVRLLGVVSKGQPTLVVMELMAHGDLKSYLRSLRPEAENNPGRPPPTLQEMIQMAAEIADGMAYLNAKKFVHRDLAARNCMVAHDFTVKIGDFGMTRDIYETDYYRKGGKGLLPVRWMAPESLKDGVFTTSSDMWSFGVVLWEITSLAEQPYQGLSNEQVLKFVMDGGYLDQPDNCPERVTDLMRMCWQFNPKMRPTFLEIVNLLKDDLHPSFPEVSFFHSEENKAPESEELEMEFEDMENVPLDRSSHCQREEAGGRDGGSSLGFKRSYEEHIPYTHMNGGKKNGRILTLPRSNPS

insulin, sequence (P01308 90-110): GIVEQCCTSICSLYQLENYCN

Substance: insulin (from UniProt P01308)
- Kd: 2.2 nM
